Values of other authors in article PMC10561060.

Molecular target: chemoreceptor C-terminal pentapeptide (Escherichia coli)
Experiment: ITC

Row | Substance | Kd
1 | CheB (from UniProt P07330) | 160 µM
2 | CheR (from UniProt P07364) | 2 µM
